Measurements published in patent US20240035010, “COMPOSITIONS COMPRISING A VARIANT POLYPEPTIDE AND USES THEREOF” (Arbor Biotechnologies, Inc., published 2024).
Positions count from the first letter of the chain named.

Assays:
[1] = target: T1, variant nuclease 7 substitutions D590G/E154G/E736G (P14R, D32R, I61R, E311R, D590G, E154G, E736G); assay: cell_activity; PAM 5'-TTTG-3'; details: tags: pcDNA3.1 expression
T1 chain: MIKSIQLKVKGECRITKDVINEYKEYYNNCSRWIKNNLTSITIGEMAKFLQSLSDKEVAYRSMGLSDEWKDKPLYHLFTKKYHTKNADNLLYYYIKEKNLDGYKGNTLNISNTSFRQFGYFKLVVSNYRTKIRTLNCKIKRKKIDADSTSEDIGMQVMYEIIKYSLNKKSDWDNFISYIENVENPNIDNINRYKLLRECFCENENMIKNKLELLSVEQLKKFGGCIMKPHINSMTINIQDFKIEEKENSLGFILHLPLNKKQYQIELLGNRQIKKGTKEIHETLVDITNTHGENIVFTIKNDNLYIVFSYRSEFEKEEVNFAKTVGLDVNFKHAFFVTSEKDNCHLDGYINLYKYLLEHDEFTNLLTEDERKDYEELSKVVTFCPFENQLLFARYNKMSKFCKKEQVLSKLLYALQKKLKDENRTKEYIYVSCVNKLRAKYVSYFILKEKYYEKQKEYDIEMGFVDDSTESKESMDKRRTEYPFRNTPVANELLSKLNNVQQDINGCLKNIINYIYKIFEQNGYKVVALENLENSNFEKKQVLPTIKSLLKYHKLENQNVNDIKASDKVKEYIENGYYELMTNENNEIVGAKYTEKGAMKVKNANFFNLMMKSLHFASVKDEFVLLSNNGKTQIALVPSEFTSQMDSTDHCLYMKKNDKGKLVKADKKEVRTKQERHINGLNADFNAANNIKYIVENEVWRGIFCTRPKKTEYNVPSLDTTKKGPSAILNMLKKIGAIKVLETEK
In short: (§1)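 HEK293T cells were lipofected with nuclease plasmid (pcDNA3.1 backbone) plus RNA guide plasmid, with guide omitted in negative controls. After ~72 h cells were lysed in QuickExtract and % indels were derived from NGS reads, averaged over two bioreplicates and two technical replicates.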

[2] = target: T2, variant nuclease D55G/E736G combination (P14R, D32R, I61R, E311R, D55G, E736G); assay: cell_activity; PAM 5'-TTTG-3'; details: tags: pcDNA3.1 expression
T2 chain: T1 chain with D55G, G154E, G590D
In short: as §1

B1: AAVS1 crRNA ; AAVS1 target (ssRNA ; dsDNA)
RNA: CUUGUUGUAUAUGUCCUUUUAUAGGUAUUAAACAACUGAGAAUGGUGCGUCCUAGG
DNA 1: TGAGAATGGTGCGTCCTAGG
DNA 2: CCTAGGACGCACCATTCTCA
[1]
  indel activity: 5.91 fold of WT
[2]
  indel activity: 5.76 fold of WT
